Source: PMC6477179

B1: GFP-FIP200 CTR aa 1458-1594 [human] / GST-p62 FIR 4P [human] (parent)
chain 1: RIMLLERTLQLKEEENKRLNQRLMSQSMSSVSSRHSEKIAIRDFQVGDLVLIILDERHDNYVLFTVSPTLYFLHSESLPALDLKPGEGASGASRRPWVLGKVMEKEYCQAKKAQNRFKVPLGTKFYRVKAVSWNKKV
chain 2: MESDNCSGGDDDWTHLSSKEVDPDTGELQSLQMPESEGPDDLDPDQEGPTGLKEA

Variants of: B1
Test: GSH bead recruitment assay imaged by microscopy
Details: with GST-p62 FIR 4P [human];; read off a plot
For chain 1 F117A, the percent of parent was 19%. Variant chain 1 F117W has a percent of parent of 80%. chain 1 L78A showed a percent of parent of 100%. With chain 1 L78F the percent of parent was 92%. For chain 1 N60A, the percent of parent was 95%. Variant chain 1 N60F has a percent of parent of 56%. chain 1 R116D showed a percent of parent of 21%. Variant chain 1 R127A has a percent of parent of 21%. chain 1 S75A gave a percent of parent of 83%.
